Positions count from the first letter of the chain named.

Experiment [1] deals with T1, recombinant mouse LGR4 ectodomain-IgG-Fc fusion (R&D Systems) (mouse, UniProt A2ARI4 25-540, limits assumed).
T1 construct: extracellular domain; Bought construct; also called mouse LGR4-Fc; murine LGR4; not shown: IgG Fc
Nature of the experiment: ELISA, plate coated with 0.5 ug/mL mLGR4-Fc, biotinylated antibody detected with streptavidin-HRP. The protocol:
(§1) Binding of the anti-LGR4 antibodies to human and murine LGR4 was assessed in vitro using an ELISA-based plate binding assay. The assay measured biotinylated antibody binding to ELISA plate-bound purified recombinant, LGR4 ectodomain-IgG-Fc fusion, with detection of LGR4-bound antibody with horseradish peroxidase-conjugated streptavidin. […] Binding data from two of the antibodies, 8F3 and 1C5 are shown in FIGS. 5A and 5B, respectively.
Background: An ELISA detects its analyte on a solid surface through an enzyme-linked reagent.

Experiment [2] addresses T2, recombinant human LGR4 ectodomain-IgG-Fc fusion (R&D Systems) (human, UniProt Q9BXB1 25-540, limits assumed).
T2 construct: Bought construct; also called Human LGR4-Fc; LGR4-Fc; not shown: IgG Fc; detected with anti-human IgG Fc antibody
Description: ELISA, plate coated with 0.5 ug/mL hLGR4-Fc, biotinylated antibody detected with streptavidin-HRP. The protocol: as §1

The target in experiment [3] is T2, recombinant human LGR4 …. Nature of the experiment: BLI (Octet QK), biotinylated antibody on streptavidin tips, LGR4-Fc 5-80 nM in solution, 1:1 global fit, 30 degrees. The protocol:
(§2) Binding kinetics of LGR4 antibodies to human and mouse LGR4 were determined using label-free plate-based Octet QK instrument (Pall ForteBio, LLC, Menlo Park, Calif.) at 30 degrees. Biotinylated 1C5 and 8F3 LGR4 antibodies were diluted to 5 μg/mL in 1×PBS and immobilized on streptavidin tips (Pall ForteBio, LLC, Menlo Park, Calif.). Plate shaking speed was 1000 rpm. The antibodies were captured on the tips for 150 sec. To establish a baseline, the tips were transferred into wells containing binding buffer (1×PBS, supplemented with 0.1% bovine serum albumin and 0.05% Tween 20) for 60 sec. Human LGR4-Fc (R&D Systems) and mouse LGR4-Fc (R&D Systems) were diluted in binding buffer to 80 nM, 40 nM, 20 nM, 10 nM, 5 nM to make a concentration series. Additionally, a buffer-only well was used as reference. 1C5 and 8F3-coated tips were transferred into wells containing human LGR4 and mouse LGR4 dilution series for 180 sec to measure receptor association. The tips were then dipped into binding buffer for 300 sec to measure receptor dissociation.
(§3) Data were collected using ForteBio Data Acquisition software v7.1 and analyzed using ForteBio Data Analysis software v7.1. Data were referenced by subtracting signal from the buffer sample, and fitted to a 1:1 binding model using global fitting with unlinked Rmax. The experiment was repeated three times. Sample curve fits, kinetic rate constants, and KD for 1C5 and 8F3 LGR4 antibodies are shown below in Table 5.
(In general: In BLI a coated tip is dipped into the sample, and binding shifts an interference pattern.)

Experiment [4] concerns the target T1, recombinant mouse LGR4 …. Described as above. The protocol:
as §2, §3

The target in experiment [5] is T2, recombinant human LGR4 …. Nature of the experiment: BLI (Octet QK), biotinylated antibody on streptavidin tips, LGR4-Fc in solution, 1:1 global fit. The protocol: as §2, §3
In experiment [6] the target is T1, recombinant mouse LGR4 …. The description is as above. The protocol:
as §2, §3

Experiment [7] concerns the target T2, recombinant human LGR4 …. Description: BLI (Octet QK), biotinylated antibody on streptavidin tips, LGR4-Fc in solution; exponent as printed (E+04), KD fits E-04. The protocol: as §2
(§4) Data were collected using ForteBio Data Acquisition software v7.1 and analyzed using ForteBio Data Analysis software v7.1. Data were referenced by subtracting signal from the buffer sample, and fitted to a 1:1 binding model using global fitting with unlinked Rmax. The experiment was repeated three times. […]

Experiment [8] addresses T3, human LGR4 on the cell surface (recombinant on CHO cells; endogenous on HEK-293T cells) (human, UniProt Q9BXB1 25-951).
T3 construct: also called CHO-LGR4; GPR48
Nature of the experiment: flow cytometry on CHO-LGR4 cells, PE anti-rat IgG secondary. The protocol:
(§5) A flow cytometry-based assay was used to measure the binding of purified anti-LGR4 antibodies 1C5 and 8F3 to recombinant human LGR4 protein overexpressed on the surface of CHO cells. CHO and CHO-LGR4 cells were stained with serial dilutions of anti-LGR4 antibodies at 4° C. Surface staining was detected with PE-conjugated anti-rat IgG secondary antibodies and analyzed on the FACSCalibur (FIG. 4A and FIG. 4B). […] An antibody control (pooled rat IgG) was used as a negative isotype control in these experiments as well as wild-type CHO without LGR4.
(In general: A flow cytometer gives signals particle by particle.)

Experiment [9] has as its target T2, recombinant human LGR4 …. Description: BLI (Octet QK); receptor printed 'Human LGR4' a second time for 8F3, possibly mouse LGR4. The protocol: as §2, §4
Experiment [10] has as its target T2, recombinant human LGR4 …. Nature of the experiment: BLI (Octet QK), biotinylated antibody on streptavidin tips, LGR4-Fc in solution; receptor printed 'Human LGR4' a second time for 8F3, possibly mouse LGR4. The protocol:
as §2, §4

The target in experiment [11] is T3, human LGR4 on the cell surface …. Description: flow cytometry on CHO-LGR4 cells, PE anti-rat IgG secondary [printed FIB. 4B]. The protocol:
as §5

Experiment [12] addresses T2, recombinant human LGR4 …. Nature of the experiment: ELISA, plate coated with 2 or 1 ug/mL hLGR4-Fc, detected with HRP anti-human IgG-CH1. The protocol:
(§6) Binding of the humanized anti-LGR4 antibodies 1C5HE and 1C5HG to human and LGR4 was assessed in vitro using an ELISA-based plate binding assay. The assay measured antibody binding to ELISA plate-bound purified recombinant LGR4 ectodomain-IgG-Fc fusion (R&D Systems), with detection of LGR4-bound antibody with horseradish peroxidase-conjugated anti-human IgG-CH1 secondary antibody.

The target in experiment [13] is T2, recombinant human LGR4 …. Description: ELISA, plate coated with 2 ug/mL hLGR4-Fc, detected with HRP anti-human IgG-CH1. The protocol: as §6

B1: anti-LGR4 rat monoclonal antibody 1C5 (antibody, V domains shown)
VH: QVQLQQSGAELVKPGSSVKISCKASGYTFTSNFMHWIKQQPGNGPEWIGWIYPGDGDTEYNQKFNGKATLIADKSSTTAYMQLRSLTSEDSAVYFCARGNSGYNWFAYWGQGTLVTVSS
VL: DIQMTQSPPVLSASVGDRVTLSCKASQNINKNLDWYQQKHGEAPRLLIYYTNNLQTGIPSRFSGSGSGTDYTLTISSLQPEDVATYFCYQYKSGNTFGAGTKLELK
notes: Rat monoclonal antibody purified from hybridoma supernatant; also called 1C5 mAb; biotinylated 1C5
Consider B1, for which the entries for the “EC50 (read off the curve)” value in experiment [1], in [2] and in [8] were around 0.1 nM, around 0.1 nM and around 0.2 nM, respectively. Moreover, the kon in experiment [3] stood at 438000 M⁻¹ s⁻¹; in [4], 339000 M⁻¹ s⁻¹. For the same molecule, the Kd amounted to 1.47 nM in experiment [5] and 1.31 nM in [6]. The koff in experiment [7] is 0.000635 s⁻¹.

B2: anti-LGR4 rat monoclonal antibody 8F3 (antibody, V domains shown)
VH: B1 VH with N32Y, M34I, P45L, L70F, T77S, Y80D, R84N, G99S, N100K, G102A
VL: B1 VL with Q37H, R45K, T74I, F87Y, K92N, N95P, A99T
notes: Rat monoclonal antibody purified from hybridoma supernatant; also called 8F3 mAb; biotinylated 8F3
Consider B2, for which the “EC50 (read off the curve)” value in [1] was around 0.08 nM; in experiment [2] it was around 0.1 nM; in [11] it was around 0.2 nM. Moreover, the kon turned out to be 397000 M⁻¹ s⁻¹ in [3] and 357000 M⁻¹ s⁻¹ in experiment [10]. In addition, the Kd in [5] and in experiment [9] was 0.47 nM throughout.

B3: humanized anti-LGR4 antibody 1C5HG (antibody, human IgG1, V domains shown)
VH: EVQLVQSGAEVKKPGESLKISCKGSGYTFTSNFMHWVRQMPGKGLEWIGWIYPGDGDTEYNQKFNGKVTISADKSISTAYLQWSSLKASDTAMYYCARGNSGYNWFAYWGQGTTVTVSS
VL: EIVMTQSPATLSVSPGERATLSCKASQNINKNLDWYQQKPGQAPRLLIYYTNNLQTGIPARFSGSGSGTEFTLTISSLQSEDFAVYYCYQYKSGNTFGQGTKLEIK
notes: VH fused to the human IgG1 constant region, VL fused to the human kappa constant region; recombinant IgG from HEK 293 cells
As to B3, the binding result in experiment [12] is reported as “binds”.

B4: humanized anti-LGR4 antibody 1C5HE (antibody, human IgG1, V domains shown)
VH: QVQLVQSGAEVKKPGASVKVSCKASGYTFTSNFMHWVRQAPGQGLEWIGWIYPGDGDTEYNQKFNGKVTMTRDTSTSTVYMELSSLRSEDTAVYYCARGNSGYNWFAYWGQGTTVTVSS
VL: B3 VL
notes: as for B3
Turning to B4, in [13], the “EC50 (read off the curve)” value was around 2 nM.

A word on the EC50 (read off the curve): it is the midpoint of the concentration-response curve. The term kon denotes a measure of how fast the partners come together. A word on the Kd: it is the concentration at which binding is half-saturated. What is called koff is a measure of how fast the partners let go of each other.
